Experimental data: the supplement of paper PMC6757056
± gives the standard deviation of the averaged measurements.

B1: library; a variant is named by its letters at N, in order (parent)
chain: GCUGUCACCGAGAAACUGUGAAGUAUAUCUUAAACCUGGGCACUUAAAAGAUAUAUGGAGUUAGUAGUGCAACCUGCUCGGUCUGAUGAGUCCNNNNNNGGACGAAACAGC

Tests used:
cyclic di-GMP [1] = variants of: B1; experiment: normalized RNA/DNA level without ligand (relative to sTRSVctl = 100) (log10 (% of sTRSVctl)); HEK293T; ligand: cyclic di-GMP (c-di-GMP-II aptamer); higher = less ribozyme self-cleavage, higher mRNA level; details: reporter: mCherry (pCS4076), ligand present: no
Outline: (§1)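 Ribozyme switch library plasmids linked to reporters were introduced into HEK293T cells at 4 µg per 6-well well, with ligand, if any, added 1 h before. Total RNA was extracted with EDTA 72 h later, reverse-transcribed, amplified, barcoded and sequenced. RNA level was computed from RNA over DNA reads relative to a spiked-in non-cleaving sequence or the top sequences, then scaled and log-transformed. The top set was 25 sequences, values were ×100 and log10, and the cutoff was ≥100 DNA reads.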

cyclic di-GMP [2] = variants of: B1; experiment: normalized RNA/DNA level with ligand (relative to sTRSVctl = 100) (log10 (% of sTRSVctl)); HEK293T; ligand: cyclic di-GMP (c-di-GMP-II aptamer); ligand concentration (+) RNA-Seq: 1 mM; higher = less ribozyme self-cleavage, higher mRNA level; details: reporter: mCherry (pCS4076), ligand present: yes
Outline: as §1

GCGUGC
normalized RNA/DNA level without ligand (log10) (cyclic di-GMP [1]): 1.68 ± 0.0027 | normalized RNA/DNA level with ligand (log10) (cyclic di-GMP [2]): 1.81 ± 0.14

GCGUGG
normalized RNA/DNA level without ligand (log10) (cyclic di-GMP [1]): 1.71 ± 0.051 | normalized RNA/DNA level with ligand (log10) (cyclic di-GMP [2]): 1.78 ± 0.14

ACUAUU
normalized RNA/DNA level without ligand (log10) (cyclic di-GMP [1]): 1.5 ± 0.047 | normalized RNA/DNA level with ligand (log10) (cyclic di-GMP [2]): 1.7 ± 0.11

ACUAUC
normalized RNA/DNA level without ligand (log10) (cyclic di-GMP [1]): 1.622 ± 0.012 | normalized RNA/DNA level with ligand (log10) (cyclic di-GMP [2]): 1.79 ± 0.067

ACUAUG
normalized RNA/DNA level without ligand (log10) (cyclic di-GMP [1]): 1.586 ± 0.01 | normalized RNA/DNA level with ligand (log10) (cyclic di-GMP [2]): 1.75 ± 0.087

CCUGGU
normalized RNA/DNA level without ligand (log10) (cyclic di-GMP [1]): 1.672 ± 0.0096 | normalized RNA/DNA level with ligand (log10) (cyclic di-GMP [2]): 1.83 ± 0.13

CCUGGG
normalized RNA/DNA level without ligand (log10) (cyclic di-GMP [1]): 1.72 ± 0.018 | normalized RNA/DNA level with ligand (log10) (cyclic di-GMP [2]): 1.82 ± 0.18

CCUGGA
normalized RNA/DNA level without ligand (log10) (cyclic di-GMP [1]): 1.56 ± 0.052 | normalized RNA/DNA level with ligand (log10) (cyclic di-GMP [2]): 1.76 ± 0.069

GCUCAA
normalized RNA/DNA level without ligand (log10) (cyclic di-GMP [1]): 1.6 ± 0.023 | normalized RNA/DNA level with ligand (log10) (cyclic di-GMP [2]): 1.79 ± 0.072

GCUCAC
normalized RNA/DNA level without ligand (log10) (cyclic di-GMP [1]): 1.69 ± 0.034 | normalized RNA/DNA level with ligand (log10) (cyclic di-GMP [2]): 1.83 ± 0.12

GCUCAG
normalized RNA/DNA level without ligand (log10) (cyclic di-GMP [1]): 1.79 ± 0.081 | normalized RNA/DNA level with ligand (log10) (cyclic di-GMP [2]): 1.87 ± 0.15

CCUCAC
normalized RNA/DNA level without ligand (log10) (cyclic di-GMP [1]): 1.698 ± 0.0058 | normalized RNA/DNA level with ligand (log10) (cyclic di-GMP [2]): 1.85 ± 0.1

CCUCAU
normalized RNA/DNA level without ligand (log10) (cyclic di-GMP [1]): 1.65 ± 0.064 | normalized RNA/DNA level with ligand (log10) (cyclic di-GMP [2]): 1.81 ± 0.057

CCUCUG
normalized RNA/DNA level without ligand (log10) (cyclic di-GMP [1]): 1.63 ± 0.058 | normalized RNA/DNA level with ligand (log10) (cyclic di-GMP [2]): 1.81 ± 0.1

CCUCUC
normalized RNA/DNA level without ligand (log10) (cyclic di-GMP [1]): 1.79 ± 0.053 | normalized RNA/DNA level with ligand (log10) (cyclic di-GMP [2]): 1.89 ± 0.14

CCUCUA
normalized RNA/DNA level without ligand (log10) (cyclic di-GMP [1]): 1.427 ± 0.0066 | normalized RNA/DNA level with ligand (log10) (cyclic di-GMP [2]): 1.68 ± 0.13

CCUCUU
normalized RNA/DNA level without ligand (log10) (cyclic di-GMP [1]): 1.63 ± 0.017 | normalized RNA/DNA level with ligand (log10) (cyclic di-GMP [2]): 1.81 ± 0.15

ACUAAC
normalized RNA/DNA level without ligand (log10) (cyclic di-GMP [1]): 1.607 ± 0.015 | normalized RNA/DNA level with ligand (log10) (cyclic di-GMP [2]): 1.76 ± 0.15

GCGGCG
normalized RNA/DNA level without ligand (log10) (cyclic di-GMP [1]): 1.842 ± 0.0045 | normalized RNA/DNA level with ligand (log10) (cyclic di-GMP [2]): 1.9 ± 0.057

GCGGCA
normalized RNA/DNA level without ligand (log10) (cyclic di-GMP [1]): 1.82 ± 0.032 | normalized RNA/DNA level with ligand (log10) (cyclic di-GMP [2]): 1.9 ± 0.12

GCGGCC
normalized RNA/DNA level without ligand (log10) (cyclic di-GMP [1]): 1.73 ± 0.039 | normalized RNA/DNA level with ligand (log10) (cyclic di-GMP [2]): 1.86 ± 0.15

GCGGCU
normalized RNA/DNA level without ligand (log10) (cyclic di-GMP [1]): 1.75 ± 0.024 | normalized RNA/DNA level with ligand (log10) (cyclic di-GMP [2]): 1.91 ± 0.14

ACUGCG
normalized RNA/DNA level without ligand (log10) (cyclic di-GMP [1]): 1.73 ± 0.069 | normalized RNA/DNA level with ligand (log10) (cyclic di-GMP [2]): 1.83 ± 0.069

ACUGCA
normalized RNA/DNA level without ligand (log10) (cyclic di-GMP [1]): 1.64 ± 0.023 | normalized RNA/DNA level with ligand (log10) (cyclic di-GMP [2]): 1.77 ± 0.1

ACUGCC
normalized RNA/DNA level without ligand (log10) (cyclic di-GMP [1]): 1.744 ± 0.016 | normalized RNA/DNA level with ligand (log10) (cyclic di-GMP [2]): 1.88 ± 0.12

GCUAGG
normalized RNA/DNA level without ligand (log10) (cyclic di-GMP [1]): 1.54 ± 0.12 | normalized RNA/DNA level with ligand (log10) (cyclic di-GMP [2]): 1.7 ± 0.062

GCUAGC
normalized RNA/DNA level without ligand (log10) (cyclic di-GMP [1]): 1.696 ± 0.0018 | normalized RNA/DNA level with ligand (log10) (cyclic di-GMP [2]): 1.8 ± 0.17

GCUAGU
normalized RNA/DNA level without ligand (log10) (cyclic di-GMP [1]): 1.58 ± 0.069 | normalized RNA/DNA level with ligand (log10) (cyclic di-GMP [2]): 1.78 ± 0.086

UCUCCU
normalized RNA/DNA level without ligand (log10) (cyclic di-GMP [1]): 1.77 ± 0.003 | normalized RNA/DNA level with ligand (log10) (cyclic di-GMP [2]): 1.91 ± 0.14

UCUCCA
normalized RNA/DNA level without ligand (log10) (cyclic di-GMP [1]): 1.758 ± 0.012 | normalized RNA/DNA level with ligand (log10) (cyclic di-GMP [2]): 1.85 ± 0.12

UCUCCC
normalized RNA/DNA level without ligand (log10) (cyclic di-GMP [1]): 1.81 ± 0.073 | normalized RNA/DNA level with ligand (log10) (cyclic di-GMP [2]): 1.92 ± 0.14

UCUCCG
normalized RNA/DNA level without ligand (log10) (cyclic di-GMP [1]): 1.839 ± 0.0029 | normalized RNA/DNA level with ligand (log10) (cyclic di-GMP [2]): 1.94 ± 0.099

ACUCAU
normalized RNA/DNA level without ligand (log10) (cyclic di-GMP [1]): 1.61 ± 0.022 | normalized RNA/DNA level with ligand (log10) (cyclic di-GMP [2]): 1.81 ± 0.15

ACUCAA
normalized RNA/DNA level without ligand (log10) (cyclic di-GMP [1]): 1.52 ± 0.029 | normalized RNA/DNA level with ligand (log10) (cyclic di-GMP [2]): 1.71 ± 0.099

ACUCAC
normalized RNA/DNA level without ligand (log10) (cyclic di-GMP [1]): 1.699 ± 0.0095 | normalized RNA/DNA level with ligand (log10) (cyclic di-GMP [2]): 1.81 ± 0.092

ACGUCC
normalized RNA/DNA level without ligand (log10) (cyclic di-GMP [1]): 1.75 ± 0.042 | normalized RNA/DNA level with ligand (log10) (cyclic di-GMP [2]): 1.93 ± 0.12

ACGUCU
normalized RNA/DNA level without ligand (log10) (cyclic di-GMP [1]): 1.55 ± 0.087 | normalized RNA/DNA level with ligand (log10) (cyclic di-GMP [2]): 1.74 ± 0.085

ACGUCA
normalized RNA/DNA level without ligand (log10) (cyclic di-GMP [1]): 1.61 ± 0.033 | normalized RNA/DNA level with ligand (log10) (cyclic di-GMP [2]): 1.76 ± 0.13

ACGUCG
normalized RNA/DNA level without ligand (log10) (cyclic di-GMP [1]): 1.605 ± 0.011 | normalized RNA/DNA level with ligand (log10) (cyclic di-GMP [2]): 1.81 ± 0.12

UCUAGA
normalized RNA/DNA level without ligand (log10) (cyclic di-GMP [1]): 1.74 ± 0.021 | normalized RNA/DNA level with ligand (log10) (cyclic di-GMP [2]): 1.88 ± 0.15

UCUAGC
normalized RNA/DNA level without ligand (log10) (cyclic di-GMP [1]): 1.69 ± 0.023 | normalized RNA/DNA level with ligand (log10) (cyclic di-GMP [2]): 1.88 ± 0.13

UCUAGG
normalized RNA/DNA level without ligand (log10) (cyclic di-GMP [1]): 1.81 ± 0.049 | normalized RNA/DNA level with ligand (log10) (cyclic di-GMP [2]): 1.88 ± 0.12

UCUAGU
normalized RNA/DNA level without ligand (log10) (cyclic di-GMP [1]): 1.66 ± 0.054 | normalized RNA/DNA level with ligand (log10) (cyclic di-GMP [2]): 1.83 ± 0.057

ACGUGC
normalized RNA/DNA level without ligand (log10) (cyclic di-GMP [1]): 1.59 ± 0.036 | normalized RNA/DNA level with ligand (log10) (cyclic di-GMP [2]): 1.8 ± 0.065

ACUGAC
normalized RNA/DNA level without ligand (log10) (cyclic di-GMP [1]): 1.611 ± 0.012 | normalized RNA/DNA level with ligand (log10) (cyclic di-GMP [2]): 1.77 ± 0.12

ACUGAG
normalized RNA/DNA level without ligand (log10) (cyclic di-GMP [1]): 1.54 ± 0.11 | normalized RNA/DNA level with ligand (log10) (cyclic di-GMP [2]): 1.71 ± 0.031

UCGGAC
normalized RNA/DNA level without ligand (log10) (cyclic di-GMP [1]): 1.66 ± 0.029 | normalized RNA/DNA level with ligand (log10) (cyclic di-GMP [2]): 1.8 ± 0.13

GCGGAU
normalized RNA/DNA level without ligand (log10) (cyclic di-GMP [1]): 1.43 ± 0.097 | normalized RNA/DNA level with ligand (log10) (cyclic di-GMP [2]): 1.63 ± 0.11

ACUCUA
normalized RNA/DNA level without ligand (log10) (cyclic di-GMP [1]): 1.6 ± 0.046 | normalized RNA/DNA level with ligand (log10) (cyclic di-GMP [2]): 1.77 ± 0.081

ACUCUG
normalized RNA/DNA level without ligand (log10) (cyclic di-GMP [1]): 1.602 ± 0.0083 | normalized RNA/DNA level with ligand (log10) (cyclic di-GMP [2]): 1.81 ± 0.096

ACUCUC
normalized RNA/DNA level without ligand (log10) (cyclic di-GMP [1]): 1.77 ± 0.076 | normalized RNA/DNA level with ligand (log10) (cyclic di-GMP [2]): 1.86 ± 0.12

UCUGGA
normalized RNA/DNA level without ligand (log10) (cyclic di-GMP [1]): 1.58 ± 0.054 | normalized RNA/DNA level with ligand (log10) (cyclic di-GMP [2]): 1.79 ± 0.1

UCUGGG
normalized RNA/DNA level without ligand (log10) (cyclic di-GMP [1]): 1.74 ± 0.026 | normalized RNA/DNA level with ligand (log10) (cyclic di-GMP [2]): 1.88 ± 0.059

UCUGGC
normalized RNA/DNA level without ligand (log10) (cyclic di-GMP [1]): 1.78 ± 0.025 | normalized RNA/DNA level with ligand (log10) (cyclic di-GMP [2]): 1.88 ± 0.068

CCGGUC
normalized RNA/DNA level without ligand (log10) (cyclic di-GMP [1]): 1.622 ± 0.0071 | normalized RNA/DNA level with ligand (log10) (cyclic di-GMP [2]): 1.83 ± 0.073

GCUCUG
normalized RNA/DNA level without ligand (log10) (cyclic di-GMP [1]): 1.629 ± 0.0036 | normalized RNA/DNA level with ligand (log10) (cyclic di-GMP [2]): 1.8 ± 0.11

GCUCUC
normalized RNA/DNA level without ligand (log10) (cyclic di-GMP [1]): 1.66 ± 0.026 | normalized RNA/DNA level with ligand (log10) (cyclic di-GMP [2]): 1.81 ± 0.079
